Measured values published in the DeepSol protein solubility set.

Test: soluble on expression in E. coli; label from the status in PepcDB or PDB records

Sequence	soluble on expression in E. coli
MFQKVDAYAGDPILTLMERFKEDPRSDKVNLSIGLYYNEDGIIPQLQAVAEAEARLNAQPHGASLYLPMEGLNCYRHAIAPLLFGADHPVLKQQRVATIQTLGGSGALKVGADFLKRYFPESGVWVSDPTWENHVAIFAGAGFEVSTYPWYDEATNGVRFNDLLATLKTLQAGSIVLLHPCCHNPTGADLTNDQWDAVIEILKARELIPFLDIAYQGFGAGMEEDAYAIRAIASAGLPALVSNSFSKIFSLYGERVGGLSVMCEDAEAAGRVLGQLKATVRRNYSSPPNFGAQVVAAVLNDEALKASWLKEVEEMRTRILAMRQELVKVLSTEMPERNFDYLLNQRGMFSYTGLSAAQVDRLREEFGVYLIASGRMCVAGLNTANVQRVAKAFAAVM	soluble
MSLKEELQLKQKLGGQKMVIQGDTLENSARRLLQERGVTMNDLAELVLFLQKDYIDNLTLDTCLESVDAVLTKREVHNAIITGVQLDILAEENKLLSPLQEILTEDEGLYGIDEIMALSIVNVYGSIGFTNYGYIDKVKPGILKELNAHDGEHVHTFLDDIVGAIAAAAASRLAHSQPDLSDITKEGGSHHHHHH	soluble
MGSDKIHHHHHHMEQIIRIGMDTSKHVFQLHGVNAAEEVVLRKKMRRKEMVAFFERAAPTVVALEACGGSHHWARLLEALGHDVKLIPPQYVKPYVKRGKNDAADAEALCEAVSRPTMRFVRVKTTDNQAALMLVGMRDRLVRNRTQLANAIRGYAAEFGLIAATGTSKVRSLLERIATDETLPELARELFGLHGREYDRLEDEIEKVEARLMAWHRTNECSRRLTRIPGVGPIGALMMVMKTPAPETFRSGRHFAAWLGLTPKDHSTAGRVRLGVITRAGDENLRSVLVAGATAVLRHVREDRGKNASPWLLDMLNRKPPKLVAVALANKIARVAWKLMVTGERYNPNAALSAYGQAA	not soluble
MPNKNTQEYWEERGRKAIENELKRDKTKAEEIERILNMMIKRIEKEINAFIVKYGDFAGVTLQEAQKIIDEFDVKAFQEEAKRLVENKDFSDRANEELKKYNTKMYVSREQMLKIQIEFLIAYATAQTELSMREYFESTAYRVFSDQAGILGEGVQVAKEVIDTIVDTQFHGVVWSERLWTNTEAMKQEVEEIIANVVIRGRHPNEYVKDMRKHLNKFEGTARQKTAAIKSLLYTESARVHAQSSIDSMKEISPEGYYMYIAKIDNRTTKVCKGLNGEIFKVKDAKIGVNFYPMHINCRSDCALLPKSMWPKKPSKKRKTKYFGGKVKSGD	not soluble
MFHVKLTLTTMLDTMNSSAHRPVVVADVDTGIDDALAITYLGYLHRRGLIELRITTSAGNCTAEQAAANSAEIMNSLTLSDVPITPGAPKPRALPLTTTPETHGPTGLGYHTTRATIPQLSNAAAAVDLWKGADYLLVAGPATNVAWAAENAPEVLNAIPHVTFMTGAFHYPGNTTPTAEWNAWVDPHALKEALAHYRGHAVRPTICPLNVTESVLLTPQRLKQWCQRSQEPVLPILSDALRFYFEFHESVGVGYMAQIHDLAAAMVLLNRVPHTTRPGFVDVEADAELTRGTTVVDWDSNYGDHPANAQILTALQSEDVFAEFERVVLEY	not soluble
MNSQTTKDIPCFRSYLPDALRLRFEDKLTIRAIAQRLGLSHSTIHTLFQRFLASGIAWPLPDSVSFAQLDAILYANRKKELTEPQIREGSWRKERRTSYSREFKVRLAKQALQPGAVVARIAREHDINNNLLFKWKSQYEDGLLSDDDIQECMPVPVALTDTPEPTRPVTNPFWRNKHDERPEGAPGNVPRCELHLKSGVVKLFDPLTPELLRALIREMKGGIRLEHHHHHH	not soluble
MGSTSSLYAAIDLGSNSFHMLVVREVAGSIQTLTRIKRKVRLAAGLNSENDLSNEAMERGWQCLRLFAERLQDIPPSQIRVVATATLRLAVNAGDFIAKAQEILGCPVQVISGEEEARLIYQGVAHTTGGADQRLVVDIGGASTELVTGTGAQTTSLFSLSMGCVTWLERYFADRNLGQENFDAAEKAAREVLRPVADELRYHGWKVCVGASGTVQALQEIMMAQGMDERITLEKLQQLKQRAIHCGRLEELEIDGLTLERALVFPSGLAILIAIFTELNIQCMTLAGGALREGLVYGMLHLAVEQDIRSRTLRNIQRRFMIDIDQAQRVAKVAANFFDQVENEWHLEAISRDLLISACQLHEIGLSVDFKQAPQHAAYLVRNLDLPGFTPAQKKLLATLLLNQTNPVDLSSLHQQNAVPPRVAEQLCRLLRLAIIFASRRRDDLVPEMTLQANHELLTLTLPQGWLTQHPLGKEIIAQENQWQSYVHWPLEVH	not soluble
MKGAARLAPGRPSPAPAWETSDPYAAALRSGHGPLYLRRTDGWLLPLEVERWCARADAVDLDVLDRCEGAVLDVGCGPGRLVAELAARGRTVLGIDVSEAAVTRTVRLGGQSLRRSVFEPLPGEGRWDTVLLMDGNVGIGGDPRTLLGRVAALLAPGGLLIAETAGSDIDERAHVQVVDVTDGDAAGSPFPWARIGTPALLGHARDTGWRPAAQWTSGERRFVALRSSRSASSSAEPPNSTAVTSSQRARKPSADSPVTPWLEHHHHHH	not soluble
YTDYEERRLIHEVPIIVPRGTGKTTLGSAIAEVGQIIDGEWGADIQLLAYSREQAGYLFNASRAMLSNEESLLHYMREADILRSTKQGILYETTNSLMSIKTSDYESLDGTNAHYNIFDEVHTYDDDFIKVVNDGSSRKRKNWITWYISTNGTKRDKLFDKYYNIWVDILDDKIINDSVMPWIYQLDDVSEIHDPDMWQKAMPLLGITTEKETIARDIEMSKNDPAQQAELMAKTFNLPVNNYLAYFSNEECKGWSDKFDESLFVGDDERNARCVIGIDLSDVNDICSISFMVVRGEERHYLNKKFMPRHTIETLPKELRDKYTEWELSGMLHVHELDYNDQAYIFEELRQFMSDNRILPVAVGYDRYNARELIRLFNDYYGDICHDIPQTVKSLSNPLKVYKEKAKMGKIIFDDPVATWNHANVRVKIDANNNIFPNKEKAKEKIDVFASQLDAFICYENFKEDLSYYFD	not soluble
MSNEISDRKVSDTLKDKKPMSLLLLGTDTGEFGRSYKGRTDTIMMMVINPKTNKTTVVSLPRDMKVNLPDYPDYSPAKINAAYTYGGVDETVKTIKKYFNVPTDAYVMVNMGGLEKAIDQVGGVTVKSPLTFDYEGYHFTKGVTYHMNGKKALAFSRMRYDDPRGDYGRQERQRLVIMALLKSSISYKTVVNQTFLNSISKQTMTNLTFDNMVALAQNYRHATDNVTTDHAQGQGDWENGVAYESVSQAECQRISNKLRAALGLKPETLKTGELEHHHHHH	soluble
SLPHPAPGPADAEDPRLAEVMAAVRSSRRYQSVAPETVRRLAANALVASRGDLAEAVKRTKRSLHEVFGAYLPSPPKYDALLRQLRDAVDAGDDEAVRAVLHRAMSTHASTRERLPILEEFYREVFARLDAPTSVRDLACGMNPLAAPWMPGSDAFTYHASDIDTRLTEFLAAALETLGVAHDVRVRDLMTGVGEVATDVTLLLKTLPCIEAQGRGQGWDLIDAIRSPVVVVSFPTKSLGQRSKGMFNTYSANFGAWLENRPHDVEQVEFRNELVYFVRKNA	soluble
TGKIDGILSIGVDVTERVKWRKQIEASGARLKSMIDQTPAPTLVLMGDNLVIEQVNTSMLKLLGHEENIVGIPLLTLMPELKGQYIWEQVEKVYREGIPFDQSEVRVSHKRTGMMEDYYYNIAYRPLKED	not soluble
MSLIHSMTAFSRIQKQFDVGDFCWEIRSVNHRYLDVSFRLPESFRFLEAELRTLLRDKIHRGKLECHLKYKDTSCDNRSMLINIGTINALLDLSSKLSASHHLANDMTVSQVLSWPGVVEASLLDMEELSQIALELFQKSIDKLCEVRAGEGRSLKAYVEDRLQALRQEVMKSKSIVVSMSAKTKDKLLTRLHELQMDVPEARVEQEIALLLAKLDVSEELDRLETHIAEVSRTLNAEKVTGRRLDFLMQELNREANTLSSKSDSAELTLCAVEMKVLIEQMREQIQNFEEGHHHHHH	soluble
SLPVINGAHVISMKNYTLVSDAYGEKGVKKVYEDEYLICENLKSFNKNLHPNFNFACFCLFDGHNGKNTAMFLKRNLAQELSNSFLEMQNTYDSSLPIPDHFIKISVNNTCKRIDERIAQEYPNSRDGATCVIVLIKDEYAYIINIGDSCAYLCRYLNNSNQAIELVDIHKPWVITEKERIIKHGGTIENGRVNDIIDVTRSFGDLSLKKYGLLCTGTFKKFKINSDDNFIILGTDGFFGSVDINYVINEITNLSKKEERLVNVEKKKTVFDAKSICNIMVEHAIVDKKSQDNVTVVLIKFLHKKGNSSTTTTTTEIRLLTKPERKLSWLLPPLSNN	soluble
MGSDKIHHHHHHMHIRKYDHDYSRRFFMEQAAKGIATAGVLGPLWPMIANSADITKAYPDELMSIDAWSKGKIKTGDFITAENVEIVKELLDPVAYHHIKTMGRKIRIVPTTRDITRMFPAEYLEATLRNQGKAKLDANSNVVSSDGKPWIGGNPFPDAKTGLEVAANLTMCWGRKDNSLTAIRDWEVAPDGSMSYQYDFAWVEQNTTARADGKVLPGGDELLRYNAVYFTGPSDVKGTSYLNTWYYDQRKFPELVGYLPAFKRVRKFPTNQRFEPLVPGMNLYLSDAWAAGDPMLTWGNYKIVGRGPMLGAQSQTWYGDRPNWERPVQGGPKNQTFFETQMELCPDVVIFEAEPTGYPRAPVGKKRVWVDVRNQMYVAYITYDRRGEIFKSFEPQYSFLEKGDKKLMDGKSTAWHWTAVQCYNFQDGRMTRFQPVTSIAGGMSTAFNIDGLYEKYMTQQALQRMGT	not soluble
MPTITTKTPVKGLIFNIQKFSINDGPGIRTVVFFKGCPLRCKWCSNPESQSGEQESMYDEQTAKQTIVGDYMTVDDIMKVILQDKDFYEESGGGVTFSGGEVLFQASFAIELAKAVKAAGINLACETTGYARPKVFNEFMSYMDFMYYDCKQWDPAQHRIGTGADNGVILRNLATAVQAHQKMMVRIPVIPGFNYTLNDADHFGQLFNQIGVTEVELLPFHQFGLKKYQDLGRKYALVNVKQLQADDLIDYAEHIRAHGVKVRVNGW	not soluble
MGSDKIHHHHHHMGVVRTDKWLKRYVVQWPKAQVAGEKFELQQKLIISLLKDAFHTDHLDELQQQLLGQGLFLPTDDIELSYRALQDRAIWHLVHKQYTELREKWKGPNVPIYLFPVNTANPTIREQLGMKMGVSYRDKIVLFIGEMTSDQDVQALVTHEYHHCCRLTQLKLYEGTMTLLESMVMEGLAEKAVAEEVGRDALAIWTSRYDKADLHSLWALLLEQRMMKGRDRHYPYLFGGVGGIPEWAGYYLGYRIVDQAMKNDPTLTTTSMMKMEAEAILQRSFSAKRGRAVAVRGREISRDHS	not soluble
GPGSMTKLFHHNITAIHEKFQPPFSVDTFRRIARLVLARVEHMPPPDYYDGSAVWRRVRHYMRQWIKKPDPSEVCMVPLLDLVNHSNRPNCGLRVGPSSVVGGKGAITLYSIARINPGQEICRHYNFAINRPNALFRYGFLPFDLISIVEHDAIDEYLVKNQHMLREESEEVRMKQQKEREEIQKLEKIFQHARSGR	not soluble
MQFVWEAERTKAKVNAMLCLKRQAVANPLFGKGRLKIFSDDLLFIEQIPQTADNPTDKLLQFRVDFLLFPRKANKSRKNIKNVKKLRTNSLISCNYM	not soluble
DIVLTQSPTTMAASPGEKITITCSASSSISSNYLHWYQQKPGFSPKLLIYRTSNLASGVPARFSGSGSGTSYSLTIGTMEAEDVATYYCQQGSSIPLTFGAGTKLELKRADAAPTVSIFPPSSEQLTSGGASVVCFLNNFYPKDINVKWKIDGSERQNGVLNSWTDQDSKDSTYSMSSTLTLTKDEYERHNSYTCEATHKTSTSPIVKSFNRNEC	soluble
MTDVPALEIKNLHKTFGQNEVLKGISLQAQKGDVISIIGSSGSGKSTFLRCINLLETPTAGEIWVKGELIQMKTTRQGTVQPAKEKQVQRIRSRLAMVFQSFNLWSHMTVLENVIEAPVHVLGVPKAQAIEQAERLLRKVGLYERKDYYPGHLSGGQQQRAAIARALAVEPEVMLFDEPTSALDPELVGEVLGVMRDLAEEGRTMLVVTHEMAFARDVSNHVMFLHQGKVEEQGKPEKLFKNPDSERLKQFISSIY	not soluble
